{"source": "patent US20130078188A1", "molecular_target": "thrombin (endogenous, in developing blood clots of mice) (mouse) (UniProt P19221)", "test": "cell-based or functional assay"}
{"substance": "hirudin (from UniProt P01050 1-65)", "values": [{"measurement": "inhibition of the Cy5/Cy7 ratio increase of … in tail clots of mice", "value": "> 90", "unit": "%"}]}
